Measurements as given in the DeepSol protein solubility set.

Assay: soluble on expression in E. coli; label from the status in PepcDB or PDB records
In the case of “MKKRAACLCFRSEREDEVLLVSSSRYPDRWIVPGGGMEPEEEPGGAAVREVYEEAGVKGKLGRLLGVFEQNQDPEHRTYVYVLTVTELLEDWEDSVSIGRKREWFKVEDAIKVLQCHKPVHAEYLEKLKAHHHHHH”, the “soluble on expression in E. coli” value is reported as “soluble”.
For “MASVVGTPKSAEQIQQEWDTNPRWKDVTRTYSAEDVVALQGSVVEEHTLARRGAEVLWEQLHDLEWVNALGALTGNMAVQQVRAGLKAIYLSGWQVAGDANLSGHTYPDQSLYPANSVPQVVRRINNALQRADQIAKIEGDTSVENWLAPIVADGEAGFGGALNVYELQKALIAAGVAGSHWEDQLASEKKSGHLGGKVLIPTQQHIRTLTSARLAADVADVPTVVIARTDAEAATLITSDVDERDQPFITGERTREGFYRTKNGIEPCIARAKAYAPFADLIWMETGTPDLEAARQFSEAVKAEYPDQMLAYNCSPSFNWKKHLDDATIAKFQKELAAMGFKFQFITLAGFHALNYSMFDLAYGYAQNQMSAYVELQEREFAAEERGYTATKHQREVGAGYFDRIATTVDPNSSTTALTGSTEEGQFH”, the “soluble on expression in E. coli” value was “soluble”.
In the case of “MVVFDLSWTLVQADSFELLCQAAAVDADAVAEVRRCHSLGSDDDLRACAALLRGRSSTGLAERLHALIEYTDGAASVCRVLKKLGYRTTVLSPGRSFLRELVKADLGIDFVAANRHEMDSNEHFTGAILELLVNGERKAELLTMLAMREQLSPQQIIAVGDGPVSAKMLDSAGPSIAFGAPAARDGTNIGGKIQSKSLTCIWFLMGIHERDLRSFS”, the “soluble on expression in E. coli” value is reported as “soluble”.
In the case of “MVFRCHYILVLEGFITQKNRLEHGGKDAGVEPPPYSNAAHHLTPWNDKRAIEAQELLKEFGIHHDSAANGVFLPYKVNEYVTTEVLHIGNHCTDYMKEVTKVLKEVKEYGGTQADAVAALHDIRIRLLDGSLKLNSPK”, the “soluble on expression in E. coli” value is reported as “not soluble”.
For “MSLSDFDYIQKNTPPEFPEKFKTALLPENIKKNRYSDVLANDDTRVKLNNNGYINANYIFQGRMIASQAPTIETIPDFLQMIIEQQVPIVIMLTKCKEKTRIKATPYWGYKSEGGKKVFGNYTVNTIDTLYDDVEEDKFMEDIQIRYLQIIYEDGVYSFIQIHYMGWPDFGVPLNPKDALDIVYIQYIIGTTSKFSNRNLVCVHCSAGVGRTGVYCLLSRIVEMVTYEILEKSETYSKQRSTSSSSKVREVEDRIEEILLSHPVISYEDCEVILPELVLSIRNERSKMVQTKEQYDFICETVNCFYEDALDSINQYYEVIDALTPLLQEKHSEIVQDFIKRNEEGHHHHHH”, the “soluble on expression in E. coli” value was “soluble”.
In the case of “MESKRNKPGKATGKGKPVGDKWLDDAGKDSGAPIPDRIADKLRDKEFKSFDDFRKAVWEEVSKDPELSKNLNPSAKSSVSKGYSPFTPKNQQVGGRKVYELHHDKPISQGGEVYDMDNIRVTTPKRHIDIHRGK”, the “soluble on expression in E. coli” value is reported as “soluble”.
In the case of “MGSDKIHHHHHHMLSLSKPLQEFYRLDKCLSKHGTRFEFVNDKEIICSPDESNTHTFVILEGVVSLVRGDKVLIGIVQAPFIFGLADGVAKKEAQYKLIAESGCIGYRLSSSQTLAIIEQNQLWREAFCWIVWKSQVLELRDKQLIGNNSYDQIRATLMTMIEWDEELRSRIGVMNYIHQRTRVSRSVVAEVLAALRKGNYIEMNKGKLISINRLPSEY”, the “soluble on expression in E. coli” value is reported as “not soluble”.
In the case of “MGSDKIHHHHHHMATLSTVPRIHYLRVQNFRALRNIELKNITPLTVLLGPNGSGKTTLFDVFNFLSECFQGGLRQAWDKRGRAKELKTRGADGPVVIEIKYRESKATPLITYHLSIDEGPKGPVVAEEWLAWTRGTQGRPWRFLDYRLGKGVVVGGELPDEKDERLDVPLRSAELLAVNTLGQIAQHPRVAALRDFITDWYVSYLSVDNTRTQPEAGPMEQLSKTGDNLPNVIQYLQETHPEQLQSITEVLRRRIPRLERIDATPMPDGRLLLEVKDAPFDKPVLSKFASDGTLKMLAYLTVLYDPEPPRFIGIEEPENFLHPRLLPELGEECRHASERTQLLVTTHSPFFLNSCRPDEVRILFRDEQGHTQVRTAADIEGIPEFVAAGASLGHLWIEGQFGMSDPLRNQGAPWTIEGARRGH”, the “soluble on expression in E. coli” value is reported as “not soluble”.
For “MRKLTALFVASTLALGAANLAHAADTTTAAPADAKPMMHHKGKFGPHQDMMFKDLNLTDAQKQQIHEIMKGQRDQMKRPPLEERRAMHDIIASDTFDKAKAEAQIAKMEEQRKANMLAHMETQNKIYNILTPEQKKQFNANFEKRLTERPAAKGKMPATAELEHHHHHH”, the “soluble on expression in E. coli” value was “soluble”.
